Patent US20260218147, “CAS ENDONUCLEASE AND GUIDE RNA VARIANTS WITH IMPROVED EFFICIENCY” (PIONEER HI-BRED INTERNATIONAL, INC., published 2026)

T1: Cas-alpha 10 variant T34E+M45S+G81E+G470D (SEQ ID NO:362) (synthetic construct, UniProt P0DW62 SEQ:1-497, D54F)
T1 sequence: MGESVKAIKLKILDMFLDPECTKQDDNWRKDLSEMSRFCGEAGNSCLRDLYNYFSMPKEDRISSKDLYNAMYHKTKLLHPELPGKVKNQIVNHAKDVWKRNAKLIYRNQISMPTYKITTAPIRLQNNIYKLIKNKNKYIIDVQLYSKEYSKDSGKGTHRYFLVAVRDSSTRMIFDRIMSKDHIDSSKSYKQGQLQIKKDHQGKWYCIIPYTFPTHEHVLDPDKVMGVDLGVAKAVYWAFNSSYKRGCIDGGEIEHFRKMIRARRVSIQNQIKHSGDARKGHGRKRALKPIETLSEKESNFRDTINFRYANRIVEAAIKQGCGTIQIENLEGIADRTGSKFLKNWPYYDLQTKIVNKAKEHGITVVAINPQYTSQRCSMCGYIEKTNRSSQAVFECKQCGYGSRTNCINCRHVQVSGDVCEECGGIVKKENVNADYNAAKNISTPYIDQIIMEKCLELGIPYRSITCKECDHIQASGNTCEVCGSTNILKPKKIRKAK

T2: Cas-alpha 10 base variant (synthetic construct, UniProt P0DW62 SEQ:1-497)
T2 chain: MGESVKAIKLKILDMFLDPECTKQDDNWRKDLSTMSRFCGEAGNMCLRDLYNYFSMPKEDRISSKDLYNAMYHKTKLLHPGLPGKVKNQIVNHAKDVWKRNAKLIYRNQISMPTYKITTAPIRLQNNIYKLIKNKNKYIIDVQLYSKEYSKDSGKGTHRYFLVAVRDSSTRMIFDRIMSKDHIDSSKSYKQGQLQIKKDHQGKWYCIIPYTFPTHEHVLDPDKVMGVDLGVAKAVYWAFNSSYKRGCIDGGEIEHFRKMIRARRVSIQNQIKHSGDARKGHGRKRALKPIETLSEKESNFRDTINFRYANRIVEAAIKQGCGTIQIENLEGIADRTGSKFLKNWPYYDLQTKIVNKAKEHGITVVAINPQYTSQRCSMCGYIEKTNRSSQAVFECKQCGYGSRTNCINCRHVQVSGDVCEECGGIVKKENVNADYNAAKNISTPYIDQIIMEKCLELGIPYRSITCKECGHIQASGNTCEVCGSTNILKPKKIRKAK

T3: Cas-alpha 10 variant G81E (synthetic construct, UniProt P0DW62 SEQ:1-497)
T3 chain: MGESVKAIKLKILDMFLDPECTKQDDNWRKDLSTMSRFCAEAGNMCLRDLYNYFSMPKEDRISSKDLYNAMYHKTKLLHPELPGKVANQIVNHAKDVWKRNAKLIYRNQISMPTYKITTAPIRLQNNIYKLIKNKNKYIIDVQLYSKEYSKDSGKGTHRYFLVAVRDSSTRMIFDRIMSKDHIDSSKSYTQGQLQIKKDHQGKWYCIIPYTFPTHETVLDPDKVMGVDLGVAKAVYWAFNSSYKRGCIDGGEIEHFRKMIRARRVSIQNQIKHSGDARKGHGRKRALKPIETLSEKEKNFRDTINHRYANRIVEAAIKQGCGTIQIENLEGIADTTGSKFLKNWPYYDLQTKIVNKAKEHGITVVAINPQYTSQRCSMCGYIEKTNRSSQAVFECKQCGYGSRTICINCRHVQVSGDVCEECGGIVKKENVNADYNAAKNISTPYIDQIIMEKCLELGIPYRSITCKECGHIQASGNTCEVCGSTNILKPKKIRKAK

T4: Cas-alpha 10 wild type (Cas12f) (Syntrophomonas palmitatica, UniProt P0DW62 SEQ:1-497)
T4 sequence: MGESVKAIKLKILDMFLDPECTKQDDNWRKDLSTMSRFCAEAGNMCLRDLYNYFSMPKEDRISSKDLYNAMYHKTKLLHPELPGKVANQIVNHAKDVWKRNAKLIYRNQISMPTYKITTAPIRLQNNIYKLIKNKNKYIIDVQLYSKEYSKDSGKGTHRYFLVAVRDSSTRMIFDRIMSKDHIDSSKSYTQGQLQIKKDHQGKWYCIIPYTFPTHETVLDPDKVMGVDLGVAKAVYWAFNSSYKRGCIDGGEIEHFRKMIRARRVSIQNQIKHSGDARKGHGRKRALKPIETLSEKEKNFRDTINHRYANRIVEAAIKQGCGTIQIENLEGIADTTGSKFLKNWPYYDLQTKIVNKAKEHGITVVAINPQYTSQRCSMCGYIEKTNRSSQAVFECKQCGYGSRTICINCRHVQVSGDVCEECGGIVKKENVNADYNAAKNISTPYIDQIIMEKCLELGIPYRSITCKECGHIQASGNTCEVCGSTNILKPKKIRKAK


Key:
[1] = biological target: T1, Cas-alpha 10 variant …; test: cell_activity; PAM GTTC; HEK293T 37 C; settings: tags: SV40 NLS, T2A-GFP; chain copies: 2
Method: (§1) Human cell transformation was carried-out by culturing HEK293T cells (ATCC catalog umber CRL-3216) in Dulbecco's Modified Eagle Medium (DMEM) supplemented with 10% fetal bovine serum (FBS) and penicillin (100 U/ml)/streptomycin (100 μg/ml) at 37° C. in 5% CO₂. Cells were then seeded in 96-well plates at a 1.8×10^4 cells/well density. After approximately one day growth, cells were transfected with plasmids encoding nuclease and U6-guide RNA expression cassettes using FuGENE HD (Promega) per manufacturer's instruction. Briefly, on the day of transfection, 0.450 μg of plasmid DNA ([…] of Cas-alpha nuclease and 0.099 μg of sgRNA expression cassettes) was diluted in a final volume of 20 μl of room temperature Opti-MEM (Gibco), mixed, and 1.35 μl of FuGENE HD was added directly to the solution (not allowing undiluted transfection reagent to contact the sides or bottom of the tube or plate) to achieve a 3:1 ratio of transfection reagent to plasmid DNA. The resulting mixture was then incubated for 10 mins at room temperature, 20 μl added to each HEK293T seeded well, and mixed gently by pipetting or by using a shaker. Transfected cells were then grown at 37° C. with 5% CO₂ for 4 days and GFP expression monitored by fluorescence microscope. Experiments were performed with three to twelve independent replicates and transfections where Cas-alpha 10 endonuclease and/or sgRNA plasmid DNA expression cassettes were omitted served as negative controls.
(§2) For human cells, cells were washed twice with PBS two to four days after transfection and lysed using lysis buffer (50 mM Tris, 150 mM NaCl, 0.2% Tween 20, 0.2 mg/ml Proteinase K). Next, RUNX and WTAP targets were evaluated for the presence of targeted mutations using T7 endonuclease I (Guschin, D. Y. et al. (2010) In: Mackay J., Segal D. (eds) Engineered Zinc Finger Proteins. Methods in Molecular Biology (Methods and Protocols), vol 649. Humana Press, Totowa, NJ) and Illumina deep sequencing as described above.

[2] = biological target: T2, Cas-alpha 10 base variant; test: cell_activity; PAM GTTC; HEK293T 37 C; settings: tags: SV40 NLS; chain copies: 2
Method: as §1, §2

[3] = biological target: T3, Cas-alpha 10 variant G81E; test: cell_activity; PAM GTTC; maize, 3x4 hr 45 C; settings: tags: SV40 NLS; chain copies: 2
Method: The resulting T-DNA was then placed into LBA4404, a thymine auxotrophic strain of Agrobacterium tumefaciens, containing Vir9, a separate plasmid encoding the Bo542 virulence genes (US20170121722A1 and WO 2017/078836). The resulting Agrobacterium strain was then used to transform nine-to-ten-day old immature maize embryos (approximately 2 mm in size) by submersion in 700A liquid media containing the strain at an optical density (OD) of 0.4 to 2.0 at 550 nm for 5 min. and then removed from the media and placed on solid co-cultivation medium overnight at 21° C. in the dark. Following T-DNA delivery, embryos are transferred to resting media, 13266R, and grown in the dark at 28° C. for 5-7 days. Next, coleoptiles were removed, and embryos transferred to selection media for 11-16 days and kept in the dark at 28° C. They were then moved to maturation media and incubated for 14-25 days in the dark at 28° C. and then subject to light for 2-5 days. Next, they were moved to rooting media and incubated at 26-28° C. under light for 14-28 days refreshing media as needed. To examine Cas-alpha nuclease-guide RNA activity, transformed tissue was incubated at 28° C., standard for Agrobacterium transformation, or at a range of temperatures lower or higher than 28° C.
In a third study, the efficiency of targeted mutagenesis of Cas-alpha 10 endonuclease variants, SEQ ID NOs:14, 48, 60, and 157, were compared when tested with two sgRNA recognition domains, SEQ ID NOs:61 and 327, at two target sites, MS26 and D8. Experiments were carried-out in Zea mays using Agrobacterium (Agro) transformation as described in Example 2. Two temperature regimens were performed. The first subjected Agro transformed embryos (once per day) to 45° C. for 4 hrs on days 3, 4, and 5 (3×4 hr 45° C.) after infection and the second to a continuous incubation at 37° C. on days 1-3 (1-3d 37° C.) following infection. For both regimens, embryos were placed at 28° C. before and after temperature treatment. […]

[4] = biological target: T4, Cas-alpha 10 wild type (Cas12f); test: cell_activity; PAM GTTC; HEK293T 37 C; settings: tags: SV40 NLS; chain copies: 2
Method: as §1, §2

Binder	activity [1] [% targeted mutagenesis]	activity [2] [% targeted mutagenesis]	activity [3] [% targeted mutagenesis]	activity [4] [% targeted mutagenesis]
sgRNA RUNX Design 5_157-159 ; RUNX target (ssRNA ; dsDNA) RNA: GUUUCGCGCGCCAGGGCAGUUAGGUGCCCUAAAAGAGCGAAGUGGCCGAAAGGAAAGGCUAACGCUUCUCUAACGCUACGGCGACCUUGGCGAAAUGCCAUCAAUACCACGCGGCCCGAAAGGGUUCGCGCGAAACGAACGCAUCUUGCGUAAGCGCGUGGAUUGAAACCCUGUCUUGUUUGUGAGAGG DNA 1: GTTCCCTGTCTTGTTTGTGAGAGG DNA 2: CCTCTCACAAACAAGACAGGGAAC	24.2	19.6	–	–
sgRNA MS26 (original) ; MS26 target (ssRNA ; dsDNA) RNA: AUUUACUCUGUUUCGCGCGCCAGGGCAGUUAGGUGCCCUAAAAGAGCGAAGUGGCCGAAAGGAAAGGCUAACGCUUCUCUAACGCUACGGCGACCUUGGCGAAAUGCCAUCAAUACCACGCGGCCCGAAAGGGUUCGCGCGAAACUGAGUAAUGAAAGUCGCAUCUUGCGUAAGCGCGUGGAUUGAAACAAGUUCACGGCGUUCCAGGC DNA 1: GTTCAAGTTCACGGCGTTCCAGGC DNA 2: GCCTGGAACGCCGTGAACTTGAAC	–	–	6.62	–
sgRNA RUNX (original) ; RUNX target (ssRNA ; dsDNA) RNA: AUUUACUCUGUUUCGCGCGCCAGGGCAGUUAGGUGCCCUAAAAGAGCGAAGUGGCCGAAAGGAAAGGCUAACGCUUCUCUAACGCUACGGCGACCUUGGCGAAAUGCCAUCAAUACCACGCGGCCCGAAAGGGUUCGCGCGAAACUGAGUAAUGAAAGUCGCAUCUUGCGUAAGCGCGUGGAUUGAAACCCUGUCUUGUUUGUGAGAGG DNA 1: GTTCCCTGTCTTGTTTGTGAGAGG DNA 2: CCTCTCACAAACAAGACAGGGAAC	–	8.77	–	5.68
